Test results as given in article PMC8300647, “Effects of Serine or Threonine in the Active Site of Typical 2-Cys Prx on Hyperoxidation Susceptibility and on Chaperone Activity” (Antioxidants, 2021).

B1: AhpC from Pseudomonas aeruginosa (enzyme, UniProt Q9I6Z3 1-187, looked up)
chain: MSLINTQVQPFKVNAFHNGKFIEVTEESLKGKWSVLIFMPAAFTFNCPTEIEDAANNYGEFQKAGAEVYIVTTDTHFSHKVWHETSPAVGKAQFPLIGDPTHQLTNAFGVHIPEEGLALRGTFVINPEGVIKTVEIHSNEIARDVGETVRKLKAAQYTAAHPGEVCPAKWKEGEKTLAPSLDLVGKI
notes: The forward primer carries the ATG of the Nde I site followed by the gene's own ATG, so one more Met may precede the natural start; The strain that was amplified (ATCC29853) is not the strain of the genome used for the primers; also called PaAhpC; ahpc (Pa); source: E. coli BL21 (DE3), pET15b, purified (IMAC HisTrap, PD10 desalting)
B2: PaAhpC^T44S (enzyme)
chain: MSLINTQVQPFKVNAFHNGKFIEVTEESLKGKWSVLIFMPAAFSFNCPTEIEDAANNYGEFQKAGAEVYIVTTDTHFSHKVWHETSPAVGKAQFPLIGDPTHQLTNAFGVHIPEEGLALRGTFVINPEGVIKTVEIHSNEIARDVGETVRKLKAAQYTAAHPGEVCPAKWKEGEKTLAPSLDLVGKI
notes: AhpC of Pseudomonas aeruginosa with the catalytic triad Thr changed to Ser; printed as T44S in the SEC text and legend and as T43S in the primers' names and other legends (one mutant; mutagenic primer encodes AAFSFNC); Made by site directed mutagenesis (Quick Change II) of the pET15b-ahpc (Pa) plasmid; also called PaAhpC^T43S; source: E. coli BL21 (DE3), pET15b, purified (IMAC HisTrap, …)

Legend:
[1] = target: the molecule itself; test: SEC; oxidized samples (disulfide): reduced 30 uM protein treated with 36 uM H2O2 for 30 min at room temperature; Phenomenex BioSep-SEC-S2000, 100 mM Tris-HCl pH 7.4, 1 mL/min, absorbance at 280 nm; self-association (decamer, dimer)
[2] = target: the molecule itself; test: SEC; reduced samples: 30 uM protein treated with 5 mM TCEP, excess removed by PD10; Phenomenex BioSep-SEC-S2000, 100 mM Tris-HCl pH 7.4, 1 mL/min, absorbance at 280 nm; self-association (decamer, dimer)

Protein | stoichiometry N [1] | stoichiometry N [2]
B1 | 2 | 10
B2 |  | 10
